In patent US20230250148A1 (published 2023):
Changes are numbered by the printed parent chain. Like-named read-outs stand apart in the source and are kept apart here. Values belong to the binder of their own block, whether it stands above or below them.

Assays:
[1] = target: T1, biotinylated recombinant human Fc(gamma)RI (human, UniProt P12314 16-288, biotinylated, site not stated); experiment: ELISA, fusion protein coated, biotinylated rhFc(gamma)RI in solution
T1 construct: Bought reagent; construct not described; also called rhFc(gamma)RI; Fc(gamma) receptor I
T1 sequence (P12314 16-288 limits assumed): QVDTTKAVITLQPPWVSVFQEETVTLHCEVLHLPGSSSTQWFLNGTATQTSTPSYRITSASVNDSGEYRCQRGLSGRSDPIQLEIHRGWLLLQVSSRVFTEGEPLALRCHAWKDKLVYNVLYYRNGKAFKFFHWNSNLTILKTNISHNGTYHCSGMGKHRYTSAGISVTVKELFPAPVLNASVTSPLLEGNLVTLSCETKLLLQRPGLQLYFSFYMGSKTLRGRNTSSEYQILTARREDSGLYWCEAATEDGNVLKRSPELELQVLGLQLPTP

[2] = target: T1, biotinylated recombinant human …; experiment: as above; remark: listed apart in the source
Experimental: (§1) The binding of insulin-Fc fusion proteins to the Fc(gamma)RI at pH 7.4 is conducted using an ELISA assay as follows using human Fc(gamma)RI (i.e., rhFc(gamma)RI). Insulin-Fc fusion proteins are diluted to 10 µg/mL in sodium bicarbonate buffer at pH 9.6 and coated on Maxisorp (Nunc) microtiter plates overnight at 4° C., after which the microplate strips are washed 5 times with PBST (PBS/0.05% Tween-20) buffer and blocked with Superblock blocking reagent (ThermoFisher). Serial dilutions of biotinylated rhFc(gamma)RI (recombinant human Fc(gamma)RI; R&D Systems) are prepared in PBST/10% Superblock buffer from 3000 ng/mL to 4.1 ng/mL and loaded at 100 µL/well onto the microplate strips coated with insulin-Fc fusion protein. The microtiter plate is incubated for 1 hour at room temperature after which time the microplate strips are washed 5 times with PBST and then loaded with 100 µL/well of streptavidin-HRP diluted 1:10000 in PBST/10% Superblock buffer. After incubating for 45 min, the microplate strips are washed again 5 times with PBST. TMB is added to reveal the bound Fc(gamma)RI proteins and is stopped with ELISA stop reagent (Boston Bioproducts). The plate is read in an ELISA plate reader at 450 nm, and the OD450 values (proportional to the binding of rhFc(gamma)RI to insulin-Fc protein) are plotted against log concentrations of rhFc(gamma)RI added to each well to generate binding curves using GraphPad Prism software. For groupings of compounds with somewhat similar curves, the OD450 at one of the higher concentrations, for instance at rhFc(gamma)RI concentrations of 3000 ng/mL, can be used to identify differences between coated insulin-Fc fusion protein compounds. […]

[3] = target: T2, human insulin receptor (IR) on human IM-9 cells (human, UniProt P06213 28-1382); experiment: competition with biotinylated RHI on IM-9 cells, flow cytometry, 4 C
T2 construct: whole, on cells; also called human IR
T2 sequence (P06213 28-1382): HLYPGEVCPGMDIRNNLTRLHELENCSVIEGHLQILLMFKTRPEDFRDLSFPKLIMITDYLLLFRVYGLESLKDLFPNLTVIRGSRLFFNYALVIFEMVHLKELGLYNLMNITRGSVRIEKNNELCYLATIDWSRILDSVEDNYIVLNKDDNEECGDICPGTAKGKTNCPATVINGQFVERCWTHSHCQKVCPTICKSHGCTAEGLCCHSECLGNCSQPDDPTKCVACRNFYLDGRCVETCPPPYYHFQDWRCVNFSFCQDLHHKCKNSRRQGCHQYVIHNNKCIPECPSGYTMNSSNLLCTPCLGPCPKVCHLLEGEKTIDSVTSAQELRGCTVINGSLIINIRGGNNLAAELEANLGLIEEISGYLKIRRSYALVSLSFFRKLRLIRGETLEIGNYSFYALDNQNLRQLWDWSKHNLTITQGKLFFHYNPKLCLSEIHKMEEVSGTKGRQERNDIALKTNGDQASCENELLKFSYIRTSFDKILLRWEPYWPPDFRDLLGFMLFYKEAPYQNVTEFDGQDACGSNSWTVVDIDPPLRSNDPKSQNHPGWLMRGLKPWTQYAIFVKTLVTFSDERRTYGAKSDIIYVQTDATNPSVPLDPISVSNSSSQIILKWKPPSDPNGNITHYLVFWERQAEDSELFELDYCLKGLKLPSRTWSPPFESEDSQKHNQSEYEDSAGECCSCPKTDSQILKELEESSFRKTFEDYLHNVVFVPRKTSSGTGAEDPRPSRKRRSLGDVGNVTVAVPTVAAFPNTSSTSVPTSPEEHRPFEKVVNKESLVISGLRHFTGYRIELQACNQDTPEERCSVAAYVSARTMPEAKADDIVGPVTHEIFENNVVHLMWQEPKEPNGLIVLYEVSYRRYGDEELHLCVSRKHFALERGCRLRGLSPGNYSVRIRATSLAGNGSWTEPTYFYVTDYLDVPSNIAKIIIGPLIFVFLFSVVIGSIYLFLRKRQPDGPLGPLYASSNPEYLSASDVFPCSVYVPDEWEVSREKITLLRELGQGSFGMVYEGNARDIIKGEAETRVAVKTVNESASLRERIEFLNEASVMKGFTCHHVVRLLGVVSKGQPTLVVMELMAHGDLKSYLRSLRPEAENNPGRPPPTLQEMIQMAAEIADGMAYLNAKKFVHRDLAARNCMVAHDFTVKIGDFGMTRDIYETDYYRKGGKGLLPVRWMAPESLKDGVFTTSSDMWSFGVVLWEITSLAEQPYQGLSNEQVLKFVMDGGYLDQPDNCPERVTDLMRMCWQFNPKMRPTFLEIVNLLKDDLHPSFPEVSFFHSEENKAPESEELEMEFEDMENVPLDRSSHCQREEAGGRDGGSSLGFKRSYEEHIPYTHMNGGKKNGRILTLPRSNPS
Experimental: (§2) 40 µL of an IM-9 cell suspension (8×10⁶ cells/mL) was then added to each well by multichannel pipette, mixed again gently and incubated on ice for 30 min to allow competitive binding on the IR on IM-9 cells. Cells were then washed twice with 275µL of ice-cold FACS wash buffer (HBSS/2mM EDTA/0.1% Na-azide + 0.5% horse serum) by centrifuging the V-bottom plate at 3000 rpm for 3 min and aspirating the supernatant. Cells were then resuspended in 40µL of FACS staining medium containing 1:100 diluted Streptavidin-PE (Life Technologies) for 20 min on ice. Cells were then washed once with 275 µL of ice-cold FACS buffer and finally fixed with 3% paraformaldehyde for 10 min at room temp. Cells were then washed once with 275 µL of ice-cold FACS buffer and resuspended in 250µl of FACS buffer for analysis.
(§3) The insulin-Fc fusion proteins were manufactured in HEK293 cells according to Example 1 and purified using a Protein A column according to Example 4. Their structures were confirmed according to Example 6 by non-reducing and reducing CE-SDS, and the sequences were further identified by LC-MS with glycan removal according to Example 8. Their %homodimer content was measured by size-exclusion chromatography according to Example 10, and their insulin receptor binding affinities were measured according to Example 12.

[4] = target: T2, human insulin receptor (IR) on human …; experiment: as above; remark: listed apart in the source
Experimental: as §2, §3

[5] = target: T1, biotinylated recombinant human …; experiment: ELISA, fusion protein coated, biotinylated rhFc(gamma)RI at 3000 ng/mL
Experimental: as §1
Finally, select compounds were tested for their likelihood to interact with the immune system by measuring their Fc(gamma) receptor binding activity according to the procedure of Example 15.

[6] = target: T2, human insulin receptor (IR) on human …; experiment: competition with biotinylated RHI on IM-9 cells, flow cytometry, 4 C; remark: listed apart in the source
Experimental: as §2
The lack of in vivo potency for the insulin-Fc fusion protein of SEQ ID NO: 43 correlates with its high IC50 (shown in Table 9 below) as measured by the insulin receptor binding assay according to the method of Example 12.

[7] = target: T2, human insulin receptor (IR) on human …; experiment: as above; remark: listed apart in the source
Experimental: as §2, §3

B2: insulin-Fc fusion protein of SEQ ID NO: 42 (Fc fusion)
chain: FVNQHLCGSDLVEALALVCGERGFFYTDPTGGGPRRGIVEQCCHSICSLYQLENYCNGGGGAGGGGDCPKCPAPEMLGGPSVFIFPPKPKDTLLIARTPEVTCVVVDLDPEDPEVQISWFVDGKQMQTAKTQPREEQFKGTYRVVSVLPIGHQDWLKGKQFTCKVNNKALPSPIERTISKARGQAHQPSVYVLPPSREELSKNTVSLTCLIKDFFPPDIDVEWQSNGQQEPESKYRTTPPQLDEDGSYFLYSKLSVDKSRWQRGDTFICAVMHEALHNHYTQESLSHSPG
notes: non-glycosylated
OD450nm [2]: 0.126
OD450nm minus assay background [2]: 0.063
ratio to SEQ ID NO: 36 [2]: 0.2

B3: insulin-Fc fusion protein of SEQ ID NO: 55 (Fc fusion)
chain: FVNQHLCGSHLVEALELVCGERGFFYTPKTGGSGGGGGIVEQCCTSTCSLDQLENYCGGGGGQGGGGQGGGGQGGGGGDCPKCPAPEMLGGPSVFIFPPKPKDTLLIARTPEVTCVVVDLDPEDPEVQISWFVDGKQMQTAKTQPREEQFNGTYRVVSVLPIGHQDWLKGKQFTCKVNNKALPSPIERTISKARGQAHQPSVYVLPPSREELSKNTVSLTCLIKDFFPPDIDVEWQSNGQQEPESKYRTTPPQLDEDGSYFLYSKLSVDKSRWQRGDTFICAVMHEALHNHYTQESLSHSPG
IC50 [3]: 3870 nM

B4: insulin-Fc fusion protein of SEQ ID NO: 62 (Fc fusion)
chain: B3 chain with F25H, T27G, P28G, K29G, T30G, N151S
notes: 71% homodimer
IC50 [4]: 2300 nM
OD450nm [5]: 0.175
OD450nm minus assay background [5]: 0.118
ratio to SEQ ID NO: 36 [5]: 0.32

B5: insulin-Fc fusion protein of SEQ ID NO: 61 (Fc fusion)
chain: B3 chain with F25H, T27G, P28G, K29G, T30G, D119A, N151S
notes: 73% homodimer
IC50 [4]: 3090 nM
OD450nm [5]: 0.166
OD450nm minus assay background [5]: 0.109
ratio to SEQ ID NO: 36 [5]: 0.29

B7: insulin-Fc fusion protein of SEQ ID NO: 56 (Fc fusion)
chain: FVNQHLCGSHLVEALELVCGERGFHYGGGGGGSGGGGGIVEQCCTSTCSLDQLENYCNHGGGGQGGGGQGGGGQGGGGGDCPKCPAPEMLGGPSVFIFPPKPKDTLLIARTPEVTCVVVDLDPEDPEVQISWFVDGKQMQTAKTQPREEQFNGTYRVVSVLPIGHQDWLKGKQFTCKVNNKALPSPIERTISKARGQAHQPSVYVLPPSREELSKNTVSLTCLIKDFFPPDIDVEWQSNGQQEPESKYRTTPPQLDEDGSYFLYSKLSVDKSRWQRGDTFICAVMHEALHNHYTQESLSHSPG
notes: Combined variant, canine IgGB Fc with native cNg
IC50 [3]: 554 nM

B8: insulin-Fc fusion protein of SEQ ID NO: 28 (Fc fusion)
chain: B7 chain with H59G
IC50 [3]: 1250 nM

B9: insulin-Fc fusion protein of SEQ ID NO: 44 (Fc fusion)
chain: FVNQHLCGSHLVQALYLVCGERGFFYTDPTGGGPRRGIVEQCCTSICSLYQLENYCGGGGAGGGGDCPKCPAPEMLGGPSVFIFPPKPKDTLLIARTPEVTCVVVDLDPEDPEVQISWFVDGKQMQTAKTQPREEQFSGTYRVVSVLPIGHQDWLKGKQFTCKVNNKALPSPIERTISKARGQAHQPSVYVLPPSREELSKNTVSLTCLIKDFFPPDIDVEWQSNGQQEPESKYRTTPPQLDEDGSYFLYSKLSVDKSRWQRGDTFICAVMHEALHNHYTQESLSHSPG
IC50 [6]: 2620 nM

B11: insulin-Fc fusion protein of SEQ ID NO: 47 (Fc fusion)
chain: B9 chain with Q13E, Y16A, F25Y
IC50 [6]: 2400 nM

B13: insulin-Fc fusion protein of SEQ ID NO: 52 (Fc fusion)
chain: B9 chain with Q13E, Y16A, D28P, P29G, T30G, P34G, R35G, R36G
IC50 [3]: 4720 nM
IC50 [7]: 1930 nM

B14: insulin-Fc fusion protein of SEQ ID NO: 49 (Fc fusion)
chain: FVNQHLCGSHLVQALYLVCGERGFFYTDPTQRGGGGGQRGIVEQCCTSICSLYQLENYCGGGGAGGGGDCPKCPAPEMLGGPSVFIFPPKPKDTLLIARTPEVTCVVVDLDPEDPEVQISWFVDGKQMQTAKTQPREEQFSGTYRVVSVLPIGHQDWLKGKQFTCKVNNKALPSPIERTISKARGQAHQPSVYVLPPSREELSKNTVSLTCLIKDFFPPDIDVEWQSNGQQEPESKYRTTPPQLDEDGSYFLYSKLSVDKSRWQRGDTFICAVMHEALHNHYTQESLSHSPG
IC50 [3]: 4180 nM

Next, values leading:

fold lower Fc(gamma)RI binding against SEQ ID NO: 36 [1]: 4 fold
OD450nm [2]: 0.14
OD450nm minus assay background [2]: 0.077
ratio to SEQ ID NO: 36 [2]: 0.24
B1: insulin-Fc fusion protein of SEQ ID NO: 40 (Fc fusion)
chain: B2 chain with K139S
notes: non-glycosylated

IC50 [3]: 2040 nM
B6: insulin-Fc fusion protein of SEQ ID NO: 57 (Fc fusion)
chain: B3 chain with T27G, P28G, K29G, T30G

IC50 [6]: 633 nM
B10: insulin-Fc fusion protein of SEQ ID NO: 45 (Fc fusion)
chain: B9 chain with H10E, Q13E, Y16A

IC50 [7]: 2200 nM
B12: insulin-Fc fusion protein of SEQ ID NO: 54 (Fc fusion)
chain: B9 chain with Q13E, Y16A, D28Q, P29G, T30G, P34G, R35G, R36G

IC50 [7]: 1920 nM
B15: insulin-Fc fusion protein of SEQ ID NO: 51 (Fc fusion)
chain: FVNQHLCGSHLVEALALVCGERGFFYTDPGGGGGGGGGIVEQCCTSICSLYQLENYCGGGGAGGGGDCPKCPAPEMLGGPSVFIFPPKPKDTLLIARTPEVTCVVVDLDPEDPEVQISWFVDGKQMQTAKTQPREEQFSGTYRVVSVLPIGHQDWLKGKQFTCKVNNKALPSPIERTISKARGQAHQPSVYVLPPSREELSKNTVSLTCLIKDFFPPDIDVEWQSNGQQEPESKYRTTPPQLDEDGSYFLYSKLSVDKSRWQRGDTFICAVMHEALHNHYTQESLSHSPG

IC50 [3]: 1610 nM
B16: insulin-Fc fusion protein of SEQ ID NO: 50 (Fc fusion)
chain: FVNQHLCGSHLVEALALVCGERGFFYTDPTGGGGGGSGGGGGIVEQCCTSICSLYQLENYCGGGGAGGGGDCPKCPAPEMLGGPSVFIFPPKPKDTLLIARTPEVTCVVVDLDPEDPEVQISWFVDGKQMQTAKTQPREEQFSGTYRVVSVLPIGHQDWLKGKQFTCKVNNKALPSPIERTISKARGQAHQPSVYVLPPSREELSKNTVSLTCLIKDFFPPDIDVEWQSNGQQEPESKYRTTPPQLDEDGSYFLYSKLSVDKSRWQRGDTFICAVMHEALHNHYTQESLSHSPG
